Experimental data published in patent US8420776B2, “Ube2G2 binding domain in the ubiquitin ligase gp78 and methods of use thereof” (The United States of America, as Represented by the …, priority 2004, dated 2013).
Changes are numbered by the printed parent chain.

Experiments:
[1] = biological target: T1, lysine 48-linked (K48) tetra-ubiquitin (Homo sapiens, UniProt P0CG47); experiment: Tetra-ubiquitin binding to GST fusions; conditions: anti-ubiquitin immunoblot
T1 construct: 1 μg K48 tetra-ubiquitin produced as described (Piotrowski et al., 1997); made in house
Experimental: GST fusions were purified from E. Coli. Binding was carried out using equi-molar amount of fusion proteins measured by Commassie blue staining. Generally, 20 picomoles/sample were used. In vitro translated E2 was generated by coupled transcription and translation using 35S methionine in either wheat germ or rabbit reticulocyte lysate. Binding assays using in vitro translated E2 was carried out by incubating GST protein pre-bound to Glutathione-sepharose 4B with […] of ^35S-methionine labeled E2 in binding buffer (25 mM Tris-HCl, pH 7.4; 50 mM NaCl, 5 mM DTT; and 0.5% NP-40) overnight at 4° C. Beads were washed with binding buffer and resolved by SDS-PAGE under reducing conditions. Analysis was by Storm PhosphoImager (Applied Biosystems, Foster City, Calif.). Direct binding assays used wild type His6-MmUbc7 (His6-Ube2G2) and Glutathione-sepharose bound GST fusions. Beadbound GST protein was incubated with 100 ng purified His6-MmUbc7 in binding buffer and washed and eluted as above. After transfer to Hybond-P (Amersham Biosciences) binding was assessed with anti-His6 followed by Enhanced Chemiluminescence ECL; Pierce). Ubiquitin binding studies were performed with binding and washing as above using 1 μg K48 tetra-ubiquitin produced as described (Piotrowski et al., 1997). Detection was by anti-ubiquitin immunoblotting.

ERAD substrate CD3-δ = experiment: CD3-δ level in co-transfected cells by immunoblotting; format: cell-based; conditions: for reversal of G2BD-induced CD3-δ stabilization by co-transfected Ube2G2: cells expressing Flag-tagged gp78 574-643, 2 or 4 μg Ube2G2 plasmid; for effect on CD3-δ level (stabilization): co-transfection with CD3-δ, immunoblot
Experimental: (§1) Transfections of HT1080, NIH 3T3 and HEK 293T cells were carried out ˜24 hr after plating using Polyfect (Qiagen, Valencia, Calif.) and cells harvested after ˜48 hr. J558 cells were transfected by electroporation using Bio-rad GENE pulser II at settings of 250 v, 950uF. Vector without insert was used to equalize total plasmid. In most experiments 0.15 μg of pEGFP-C1 served as an internal control. For experiments not involving immunoprecipitation, 6×10^5 cells were plated in 6 well plates and cell lysis was with Mammalian Protein Extraction Reagent (Pierce). For immunoprecipitation, 2.4×10^6 cells were seeded in 100 mm dishes and cells were lysed in RIPA buffer (1×PBS, 1% Nonidet P40. 0.5% sodium deoxycholate, 0.1% SDS). Lysis buffers were supplemented with Protease Inhibitor Cocktail (Sigma) and 10 mM iodoacetamide. Supernatants were analyzed after a 10,000×g centrifugation using standard techniques for immunoprecipitation, SDS-PAGE, immunoblotting and ECL. Treatment of cells with MG132 (Sigma) was at 50 μM for eight hr. Cycloheximnide was used at 50 μg/ml. All cells were collected at the end of the six hr chase.
FIG. 7 depicts the stabilization of CD3-δ protein in cells transfected with the G2BD, but not with the G2BD with amino acids 579-584 (of SEQ ID NO:2) mutated. HEK 293T cells were transfected with the ERAD substrate CD3-δ along with the indicated GFP fusions of gp78. The left and right sides are two separate experiments.
To test this, GFP fusions of either a minimal E2 binding domain (GFP-574-611) or a more extended region that includes the C-terminus of gp78 (GFP-574-643) were evaluated (FIG. 21A). […] To assess this further, the C-terminal region of gp78 was fused to the eight amino acid Flag tag. […] Mdm2 is a RING finger E3 for both itself and p53 that is neither an ERAD substrate nor known to utilize Ube2G2 as an E2. […] To establish with certainty that the effect observed with expression of the Ube2G2 binding site is a consequence of binding endogenous E2, and not due to other unanticipated effects, cells were co-transfected with increasing amounts of Ube2G2 (FIG. 21C, lanes 3 and 4). […] These findings clearly establish that the isolated E2 binding site has the potential to markedly alter ERAD of CD3-δ. To ensure the effect observed was not peculiar to one substrate, TCR-α was evaluated (FIG. 21D).

Myc-Ube2G2 = biological target: T2, Myc-Ube2G2 (Mus musculus, UniProt P60605); experiment: Co-immunoprecipitation with co-expressed Myc-Ube2G2 in cells; format: cell-based; conditions: anti-Myc IP, anti-gp78 IB; MG132 8 hr
T2 construct: expressed in transfected cells; host or cells: HEK 293T
T2 sequence (P60605 1-165): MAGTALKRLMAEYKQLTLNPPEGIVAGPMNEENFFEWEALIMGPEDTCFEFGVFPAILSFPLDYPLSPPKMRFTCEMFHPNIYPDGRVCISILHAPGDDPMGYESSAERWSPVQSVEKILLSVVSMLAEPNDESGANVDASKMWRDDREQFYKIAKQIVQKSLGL
Experimental: as §1
FIG. 5 depicts the results of immunoprecipitation of Ube2G2 (MmUbc7) from HEK 293T cells co-transfected with a plasmid encoding myc-tagged MmUbc7/Ube2G2 together with s plasmid encoding various forms of gp78. HEK 293T cells were transfected with a plasmid encoding myc-tagged MmUbc7/Ube2G2 together with plasmids encoding various forms of gp78. After 48 hours, cells were harvested and co-immuntoprecipitated with an anti-Myc tage. Anti-gp78 was used for detection. “R2M” indicates a mutation of two crucial residues in the RING finger. “T” indicates C terminal truncations at the indicated amino acids. ΔB is the mutation indicated above in FIG. 4 in the context of the full length gp78 and “Cue12M” indicates mutations in the Cue domain of gp78.
To confirm the significance of the Ube2G2 binding site in cells, a variety of mutations and truncations of full-length gp78 were tested for binding of co-expressed Myc-Ube2G2 (FIG. 19A). Cells were treated with the proteasome inhibitor MG132 in an attempt to equalize levels of the various forms of gp78.

B1: 435-507: GST fusion of amino acids 435-507 of gp78, the Cue domain region (protein)
chain: SFSVEVMHTTNILGITQASNSQLNAMAHQIQEMFPQVPYHLVLQDLQLTRSVEITTDNILEGRIQVPFPTQRS
modifications: left off: a dimerising Fc or GST
notes: GST fusion of amino acids 435-507 of gp78, the Cue domain region
- binding of K48 tetra-ubiquitin [1]: sufficient to bind tetra-ubiquitin

B2: Ube2G2: ubiquitin conjugating enzyme Ube2G2 expressed from co-transfected plasmid (protein, listed as Homo sapiens)
chain: T2 sequence (P60605 1-165)
- reversal of G2BD-induced CD3-δ stabilization by co-transfected Ube2G2 (ERAD substrate CD3-δ): dose-dependent reversal of CD3-δ stabilization
- reversal of G2BD-induced CD3-δ stabilization by co-transfected Ube2G2 (ERAD substrate CD3-δ; listed as Ube2G2/MmUbc7): reversed

B3: gp78576: gp78 truncated after amino acid 576 of SEQ ID NO:2 (protein, listed as Homo sapiens)
chain: MPLLFLERFPWPSLRTYTGLSGLALLGTIISAYRALSQPEAGPGEPDQLTASLQPEPPAPARPSAGGPRARDVAQYLLSDSLFVWVLVNTACCVLMLVAKLIQCIVFGPLRVSERQHLKDKFWNFIFYKFIFIFGVLNVQTVEEVVMWCLWFAGLVFLHLMVQLCKDRFEYLSFSPTTPMSSHGRVLSLLVAMLLSCCGLAAVCSITGYTHGMHTLAFMAAESLLVTVRTAHVILRYVIHLWDLNHEGTWEGKGTYVYYTDFVMELTLLSLDLMHHIHMLLFGNIWLSMASLVIFMQLRYLFHEVQRRIRRHKNYLRVVGNMEARFAVATPEELAVNNDDCAICWDSMQAARKLPCGHLFHNSCLRSWLEQDTSCPTCRMSLNIADNNRVREEHQGENLDENLVPVAAAEGRPRLNQHNHFFHFDGSRIASWLPSFSVEVMHTTNILGITQASNSQLNAMAHQIQEMFPQVPYHLVLQDLQLTRSVEITTDNILEGRIQVPFPTQRSDSIRPALNSPVERPSSDQEEGETSAQTERVPLDLSPRLEETLDFGEVEVEPSEVEDFEARGSRFSKSAD
- E2 association of full-length gp78 forms with co-expressed Myc-Ube2G2 (Myc-Ube2G2): loss of E2 binding

B4: GFP-574-643: GFP fusion of a more extended region that includes the C-terminus of gp78, residues 574-643 (protein, listed as Homo sapiens)
chain: SADERQRMLVQRKDELLQQARKRFLNKSSEDDAASESFLPLEGASSDPVTLRRRMLAAAAERRLQKQQTS
- effect on CD3-δ level (stabilization) (ERAD substrate CD3-δ): dramatically stabilized CD3-δ

B5: Flag-tagged gp78 residues 574-643: C-terminal region of gp78 fused to the eight amino acid Flag tag (protein)
chain: B4 chain
modifications: left off: small tags and cut ends
notes: C-terminal region of gp78 fused to the eight amino acid Flag tag
- effect on CD3-δ level (stabilization) (ERAD substrate CD3-δ): marked stabilization of CD3-δ

B6: Cue-m1: GST fusion of complete C-terminal region of gp78 with MFP to GGR mutation of residues 467 to 469 (protein)
chain: IRRHKNYLRVVGNMEARFAVATPEELAVNNDDCAICWDSMQAARKLPCGHLFHNSCLRSWLEQDTSCPTCRMSLNIADNNRVREEHQGENLDENLVPVAAAEGRPRLNQHNHFFHFDGSRIASWLPSFSVEVMHTTNILGITQASNSQLNAMAHQIQEGGRQVPYHLVLQDLQLTRSVEITTDNILEGRIQVPFPTQRSDSIRPALNSPVERPSSDQEEGETSAQTERVPLDLSPRLEETLDFGEVEVEPSEVEDFEARGSRFSKSADERQRMLVQRKDELLQQARKRFLNKSSEDDAASESFLPLEGASSDPVTLRRRMLAAAAERRLQKQQTS
modifications: left off: a dimerising Fc or GST
- binding of K48 tetra-ubiquitin [1]: total loss of ubiquitin binding

B7: Cue-m2: GST-gp78 fusion with VLQDL to RLQVD mutation of residues 476 to 480 (protein)
chain: B6 chain with G159M, G160F, R161P, V168R, D171V, L172D
modifications: left off: a dimerising Fc or GST
- binding of K48 tetra-ubiquitin [1]: total loss of ubiquitin binding
